From patent publication US20130251640

Experiments:
[1] = system: T1, substrate b, Mca-Gly-Pro-Ile-Leu-Phe**Phe-Arg-Leu-Gly-Lys(Dnp)-DArg-CONH2
T1 sequence: GPILFFRLGKR

[2] = system: T2, substrate c, Mca-Gly-Pro-Ile-Leu-Phe**Phe-Arg-Leu-Lys(Dnp)-DArg-CONH2
T2 sequence: GPILFFRLKR

[3] = system: T3, substrate e, Mca-Ala-Gly-Phe-Ser-Leu**Pro-Ala-Lys(Dnp)-D-Arg-CONH2
T3 sequence: AGFSLPAKR

[4] = system: T4, substrate a, Mca-Gly-Ser-Pro-Ala-Phe**Leu-Ala-Lys(Dnp)-DArg-CONH2
T4 sequence: GSPAFLAKR

[5] = system: T5, substrate d, Mca-Ala-Gly-Phe-Ser-Leu**Gly-Pro-Lys(Dnp)-DArg-CONH2
T5 sequence: AGFSLGPKR

## Cathepsin D (purchased from Calbiochem, EMD Bioscience)
[1]
  fluorescence intensity on hydrolysis (FRET substrate): Compared to substrate b, substrate c shows superior increase in the fluorescence intensity upon hydrolysis by both Cath E and Cath D
[2]
  fluorescence intensity on hydrolysis (FRET substrate): Compared to substrate b, substrate c shows superior increase in the fluorescence intensity upon hydrolysis by both Cath E and Cath D
[3]
  Kcat/Km: NM^a
  fluorescence intensity on hydrolysis (FRET substrate): both substrates d and e exhibited similar slow hydrolysis by Cath D
[4]
  fluorescence intensity on hydrolysis (FRET substrate): such leading increase in fluorescence signal with Cath E was observed as well upon incubation with Cath D
[5]
  fluorescence intensity on hydrolysis (FRET substrate): both substrates d and e exhibited similar slow hydrolysis by Cath D

## Cathepsin E (purchased from Calbiochem, EMD Bioscience)
[1]
  fluorescence intensity on hydrolysis (FRET substrate): Compared to substrate b, substrate c shows superior increase in the fluorescence intensity upon hydrolysis by both Cath E and Cath D
[2]
  fluorescence intensity on hydrolysis (FRET substrate): Compared to substrate b, substrate c shows superior increase in the fluorescence intensity upon hydrolysis by both Cath E and Cath D
[3]
  Kcat: 322 S^-1
  Kcat/Km: 16.7
  Km: 19.4 µM
  Vmax: 2.2 µM S^-1
  fluorescence intensity on hydrolysis (FRET substrate): substrate e was activated by Cath E quickly and reached saturation within 10 minutes
[4]
  fluorescence intensity on hydrolysis (FRET substrate): A prominent fluorescence increase of substrate a was observed instantaneously upon incubation with Cath E
[5]
  fluorescence intensity on hydrolysis (FRET substrate): substrate d showed relatively slow hydrolysis and did not reach saturation within the monitored period
